Literature values as cited in publication PMC9241160.

Target: Fibrinogen beta chain N-terminal fibrinopeptide (Homo sapiens) (UniProt P02675)

SdrG N2-N3 (from UniProt Q9KI13)
Kd: 400 nM
